Assay results reported in US20200040057A1 (IMMATICS BIOTECHNOLOGIES, published 2020).

B1: DDX5-001 (YLLPAIVHI from DDX5) (peptide)
peptide: YLLPAIVHI
notes: Negative control peptide for stimulations; also called 447

These binders were tested against HLA-A*02:01 (human) (assay: control peptide-MHC complex on beads, in vitro T-cell priming).
Protocol: 800.000 beads/200 μl were coated in 96-well plates in the presence of 4×12.5 ng different biotin-pMHC, washed and 600 ng biotin anti-CD28 were added subsequently in a volume of 200 μl. Stimulations were initiated in 96-well plates by co-incubating 1×10⁶ CD8+ T cells with 2×10⁵ washed coated beads in 200 μl TCM supplemented with 5 ng/ml IL-12 (PromoCell) for 3 days at 37° C. Half of the medium was then exchanged by fresh TCM supplemented with 80 U/ml IL-2 and incubating was continued for four days at 37° C. This stimulation cycle was performed for a total of three times. […] Finally, multimeric analyses were performed by staining the cells with Live/dead near IR dye (Invitrogen, Karlsruhe, Germany), CD8-FITC antibody clone SK1 (BD, Heidelberg, Germany) and fluorescent pMHC multimers. For analysis, a BD LSRII SORP cytometer equipped with appropriate lasers and filters was used. Peptide specific cells were calculated as percentage of total CD8+ cells. Evaluation of multimeric analysis was done using the FlowJo software (Tree Star, Oregon, USA). In vitro priming of specific multimer+CD8+ lymphocytes was detected by comparing to negative control stimulations.
B1: binds.

These binders were tested against HLA-B*07 (human) (assay: UV peptide exchange ELISA; + = yield >10%).
With KPGLPGLK the peptide exchange yield was 10 to 20%.
Binder YPLQQTNVY has a peptide exchange yield of 10 to 20%.
KATEYVHSL gave a peptide exchange yield of 10 to 20%.
For MPREDAHF, the peptide exchange yield was 10 to 20%.
Work on KSKQVITLL yielded a peptide exchange yield of 10 to 20%.
In the case of VPLPAGGGTVLT, the peptide exchange yield is reported as 10 to 20%.
LPLKFFPII showed a peptide exchange yield of 10 to 20%.
Binder MLKTTLTAF has a peptide exchange yield of 10 to 20%.
Binder AQNPAGTAL has a peptide exchange yield of 10 to 20%.
LPKPDLPQLI was tested, and the peptide exchange yield was 10 to 20%.
Binder SAAARALLP has a peptide exchange yield of 10 to 20%.
Work on IPLEIQKL yielded a peptide exchange yield of 10 to 20%.
Work on IPFSVDEI yielded a peptide exchange yield of 10 to 20%.
LPLQQYKLV gave a peptide exchange yield of 10 to 20%.

What follows are binders tested against HLA-B*07 (human) (assay: UV peptide exchange ELISA; ++ = yield >20%).
With AVSSHHNVI the peptide exchange yield was 20 to 50%.
For ALLLRGVTL, the peptide exchange yield was 20 to 50%.
KPSAVKDSIY showed a peptide exchange yield of 20 to 50%.
Work on FLIPRAGWLAGL yielded a peptide exchange yield of 20 to 50%.
